Assay results published in patent US20040214992A1, “Mutation induced optimization of receptor signal to noise ratio” (priority 2001, published 2004).

What was measured:
[1] = molecular target: T1, CCR-3 receptor (Homo sapiens, UniProt P51677, Y235E); test: SRE-Luc + Gq5i luciferase reporter assay, wild-type or mutant CCR-3 receptor; format: cell-based; conditions: basal activity of mutant vs wild-type
T1 construct: expressed in transfected cells; host or cells: HEK293 (inferred: assay 'as described above for the serotonin 2A receptor')
T1 sequence (P51677 1-355 Y235E): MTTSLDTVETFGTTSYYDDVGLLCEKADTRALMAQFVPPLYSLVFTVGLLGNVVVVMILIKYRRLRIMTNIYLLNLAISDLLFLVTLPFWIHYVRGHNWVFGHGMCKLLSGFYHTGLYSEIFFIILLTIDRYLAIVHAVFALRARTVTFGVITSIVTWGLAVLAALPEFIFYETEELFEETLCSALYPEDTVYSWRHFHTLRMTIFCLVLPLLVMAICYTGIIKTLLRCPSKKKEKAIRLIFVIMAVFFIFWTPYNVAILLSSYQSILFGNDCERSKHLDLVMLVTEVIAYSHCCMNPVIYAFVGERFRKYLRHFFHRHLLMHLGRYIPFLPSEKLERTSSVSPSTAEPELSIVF
Description: (§1) Alternatively, Gαi coupling can also be measured using a positive assay (i.e., one that yields an increase in activity upon receptor activation), instead of a negative assay (i.e., one that yields a decrease in activity upon receptor activation). This assay provides a more detectable output signal and less interassay variation. In one such assay, a chimeric G protein (Gq5i, Broach and Thomer, Nature 384 (Suppl.):14-16 (1996)) that contains the entire Gαq protein having the five C-terminal amino acids from Gαi attached to the C-terminus of Gαq is used. This chimeric G protein is recognized as Gαi by Gαi coupled receptors, but switches the receptor induced signaling from Gαi to Gαq. This allows Gαi receptor coupling to be detected using a positive assay by use of a Gαq responsive SMS-Luc or SRE-Luc construct (Stratagene, La Jolla, Calif.). SMS and SRE preferably respond to Gαq mediated inositol and calcium production. Moreover, detection can be carried out in the absence of forskolin pre-stimulation of cells.
(§2) The basal activity of the Tyr235Glu mutant CCR-3 receptor was assessed using a luciferase assay. The CCR-3 receptor is a Gαi coupled receptor. Therefore, we chose to use the SRE-Luc+Gq5i reporter system, described in detail above (Broach and Thorner, supra), which switches the signaling pathway from Gαi to Gαq for reliable positive readout. The luciferase assay was carried out as described above for the serotonin 2A receptor.

[2] = system: CCR-3 receptor; test: as above; format: cell-based, human; conditions: luciferase activity; for Ligand-stimulated Activity / Basal Activity: average of 5 experiments; for Basal Activity: no ligand
Description: as §1, §2

Molecule | basal activity compared to wild-type receptor (in words) [1] | Stimulated/Basal Ratio [2] | Ligand-stimulated Activity [2] | Basal Activity [2]
Lys323Glu CCR-3: silenced mutant CCR-3 receptor with Tyr to Glu substitution at position 235 of SEQ ID NO: 2 (protein, UniProt P51677 1-355, looked up, variant Y235E) C-C chemokine receptor type 3: MTTSLDTVETFGTTSYYDDVGLLCEKADTRALMAQFVPPLYSLVFTVGLLGNVVVVMILIKYRRLRIMTNIYLLNLAISDLLFLVTLPFWIHYVRGHNWVFGHGMCKLLSGFYHTGLYSEIFFIILLTIDRYLAIVHAVFALRARTVTFGVITSIVTWGLAVLAALPEFIFYETEELFEETLCSALYPEDTVYSWRHFHTLRMTIFCLVLPLLVMAICYTGIIKTLLRCPSKKKEKAIRLIFVIMAVFFIFWTPYNVAILLSSYQSILFGNDCERSKHLDLVMLVTEVIAYSHCCMNPVIYAFVGERFRKYLRHFFHRHLLMHLGRYIPFLPSEKLERTSSVSPSTAEPELSIVF | decrease in basal activity | 12 | 151,445 | 12,626
wild-type CCR-3: wild-type CC chemokine receptor 3 (CCR-3), G protein-coupled receptor, SEQ ID NO: 2 (protein, UniProt P51677 1-355, looked up) C-C chemokine receptor type 3: MTTSLDTVETFGTTSYYDDVGLLCEKADTRALMAQFVPPLYSLVFTVGLLGNVVVVMILIKYRRLRIMTNIYLLNLAISDLLFLVTLPFWIHYVRGHNWVFGHGMCKLLSGFYHTGLYSEIFFIILLTIDRYLAIVHAVFALRARTVTFGVITSIVTWGLAVLAALPEFIFYETEELFEETLCSALYPEDTVYSWRHFHTLRMTIFCLVLPLLVMAICYTGIIKTLLRCPSKKKYKAIRLIFVIMAVFFIFWTPYNVAILLSSYQSILFGNDCERSKHLDLVMLVTEVIAYSHCCMNPVIYAFVGERFRKYLRHFFHRHLLMHLGRYIPFLPSEKLERTSSVSPSTAEPELSIVF |  | 4.7 | 157,389 | 33,177
